According to the PETadex activity labels (doi:10.1111/febs.16924):

Columns and labels:
PET [1] = assay: Proxy for plastic degradation [Released monomer concentration (HPLC/LC-MS) (TPA+MHET+BHET)] (µmol TPA-EG / mg enzyme / day); conditions: pH 8
PET [2] = assay: Proxy for plastic degradation [Released monomer concentration (UHPLC) (TPA+MHET+BHET, as TPA-EG units)] (µmol TPA-EG/mg enzyme/day); conditions: pH 8
pNP-C12 = conditions: pH 8; 30 °C
[3] = substrate: Polyester-polyurethane (Impranil DLN); assay: Proxy for plastic degradation [Proton (H+) release, phenol red pH-indicator assay]; conditions: 40 °C

B1: unnamed (protein)
chain: MNFPRASRLMQAAVLGGLMAVSAAATAQTNPYARGPNPTAASLEASAGPFTVRSFTVSRPSGYGAGTVYYPTNAGGTVGAIAIVPGYTARQSSIKWWGPRLASHGFVVITIDTNSTLDQPSSRSSQQMAALRQVASLNGTSSSPIYGKVDTARMGVMGWSMGGGGSLISAANNPSLKAAAPQAPWDSSTNFSSVTVPTLIFACENDSIAPVNSSALPIYDSMSRNAKQFLEINGGSHSCANSGNSNQALIGKKGVAWMKRFMDNDTRYSTFACENPNSTRVSDFRTANCS
With B1 the “Proxy for plastic degradation” value (PET [1]; part of the chain shown) was 4.33 and the “Proxy for plastic degradation” value (PET [2]; 30 °C, part of the chain shown) was 4.33.

B2: unnamed (protein)
chain: MDGVLWRVRTAALMAALLALAAWALVWASPSVEAQSNPYQRGPNPTRSALTADGPFSVATYTVSRLSVSGFGGGVIYYPTGTSLTFGGIAMSPGYTADASSLAWLGRRLASHGFVVLVINTNSRFDYPDSRASQLSAALNYLRTSSPSAVRARLDANRLAVAGHSMGGGGTLRIAEQNPSLKAAVPLTPWHTDKTFNTSVPVLIVGAEADTVAPVSQHAIPFYQNLPSTTPKVYVELDNASHFAPNSNNAAISVYTISWMKLWVDNDTRYRQFLCNVNDPALSDFRTNNRHCQ
With B2 the “Proxy for plastic degradation” value (PET [1]) was 12.8 and the “Proxy for plastic degradation” value (PET [2]; 50 °C) was 12.8.

B3: unnamed (protein)
chain: MAENPYERGPAPTTSSIEASRGSFATSTVTVSRLAVSGFGGGTIYYPTSTTAGTFGAISIAPGFTALQSSIAWLGPRLASQGFVVFTIDTLTTSDQPDSRGRQLLAALDYLTQQSSVRSRIDSSRLGVVGHSMGGGGTLEAARSRPSLQAAIPLTGWNLTKTWSTVRVPTLVVGAQADTVAPVASHSIPFYNSLPSSLDKAYLELRGASHFAPNSSNTTIAKYTLSWLKRFIDNDTRYEQFLCPIPSTSLSISDYRGNCPHNG
Work on B3 yielded a Km (pNP-C12) of 730 µM, a kcat (pNP-C12) of 8.26 s⁻¹ and a kcat/Km (pNP-C12) of 11300 M⁻¹ s⁻¹. The “Proxy for plastic degradation” value [3] was 790 µM, the “Proxy for plastic degradation” value (PET [1]) was 0.17 and the “Proxy for plastic degradation” value (PET [2]; 40 °C) was 0.17.
